This note sets out measurements from patent US20220127365A1 (DREN BIO, published 2022).

Assay [1] deals with T1, cynomolgus CD94 (cynomolgus monkey).
T1 construct: whole, on cells; The construct expressed in HEK293 cells is not described further; also called cyno CD94; cynomolgus monkey CD94
In words: flow cytometry titration of Alexa Fluor 647 conjugate (50 nM to 0.02 nM) on primary cynomolgus NK cells. How it is done:
(§1) The ATX-130 antibody was produced in Expi-CHO cells cultured in the presence of kifunensine, a potent inhibitor of the mannosidase I enzyme, which is used to produce ATX-130-KIF mimicking non-fucosylated antibody. PBMCs of healthy donors were used for antibody staining ATX-130 antibody was titrated from 50 nM to 0.02 nM. Secondary anti-human antibody labeled with Alexa Fluor 647 was used to detect binding on CD3−CD56 bright NK cells. ATX-130-KIF antibody conjugated with Alexa Fluor 647 was titrated from 50 nM to 0.02 nM. T-LGLL cells were identified using CD3+CD16+ gating, while CLPD-NK cells were identified using CD3−CD16+ gating strategy. Titration curves and EC50 were generated using Graphpad Prism. […] Fluorescently labeled human IgG1-KIF isotype-KIF antibody was used as control. Arrows indicate ATX-130 and Human IgG1-KIF data points.
(§2) The affinity of the antibody clones was assessed by flow cytometry analysis. ATX-130-KIF mimicking non-fucosylated antibody was produced by culturing Expi-CHO cells cultured in the presence of kifunensine, a potent inhibitor of the mannosidase I enzyme. […] Thus, ATX-130 and ATX-130-KIF have similar binding affinity on primary human NK cells, cynomolgus NK cells, CLPD-NK cells, and T-LGLL cells.
(Flow cytometry measures light scatter and fluorescence of single cells or particles in a stream.)

Assay [2] deals with T2, human CD94 (human, UniProt Q13241 1-179).
T2 construct: whole, on cells; Endogenous CD94 on primary cells (healthy-donor PBMC NK cells, CLPD-NK and T-LGLL patient cells), where it pairs with NKG2A or NKG2C; also called KLRD1; Natural killer cells antigen CD94
T2 sequence (looked up): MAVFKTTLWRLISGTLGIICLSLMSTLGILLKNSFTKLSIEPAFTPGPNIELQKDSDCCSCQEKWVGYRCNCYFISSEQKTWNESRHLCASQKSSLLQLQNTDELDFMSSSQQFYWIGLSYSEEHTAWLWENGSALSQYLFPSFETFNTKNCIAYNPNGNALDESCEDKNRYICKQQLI
The experiment in a line: flow cytometry titration of Alexa Fluor 647 conjugate on CLPD-NK patient cells (CD3-CD16+); CLPD-NK cells. How it is done: as §1, §2

The target of assay [3] is T2, human CD94. In words: flow cytometry titration of Alexa Fluor 647 conjugate on T-LGLL patient cells (CD3+CD16+); T-LGLL cells. How it is done: as §1, §2
In assay [4] the target is T1, cynomolgus CD94. In words: cell-based or functional assay.
The target in assay [5] is T2, human CD94. The experiment in a line: cell-based or functional assay.
Assay [6] concerns the target T1, cynomolgus CD94. In words: flow cytometry on HEK293 cells overexpressing cynomolgus CD94; unconjugated antibody in a dilution series, Alexa Fluor 647 anti-human secondary antibody. How it is done:
For human NK cell binding, PBMCs were freshly isolated from healthy donors and incubated with unconjugated antibodies in a dilution series from 100 nM to 0.046 nM. Secondary anti-human antibody labeled with Alexa Fluor 647 was used to detect binding on CD3−CD56bright NK cells. For cynomolgus CD94 binding, HEK293 cells overexpressing cynomolgus CD94 were incubated with unconjugated antibodies in a dilution series from 100 nM to 0.046 nM. Secondary anti-human antibody labeled with Alexa Fluor 647 was used to detect binding on the cells.

Assay [7] addresses T3, CD94/NKG2C heterodimer on BaF3 cells (UniProt Q13241 1-179; P26717 1-231, limits assumed).
T3 construct: whole, on cells
In words: flow cytometry titration (50 nM to 0.02 nM) on BaF3 cells, anti-human AF647 secondary antibody; BaF3 cells overexpressing CD94/NKG2C heterodimer. How it is done:
(§3) BaF3 cells overexpressing CD94 homodimer (top panel), CD94/NKG2A heterodimer (lower left panel), and CD94/NKG2C heterodimer (lower right panel) were incubated with unconjugated ATX-130 antibody in a dilution series from 50 nM to 0.02 nM. Secondary anti-human antibody labeled with Alexa Fluor 647 was used to detect ATX-130 binding on cells.
(§4) The affinity of the antibody clone ATX-130 on CD94 homodimer and heterodimer was also assessed by flow cytometry analysis.

Assay [8] addresses T2, human CD94. In words: HLA-E tetramer blocking on healthy-donor PBMCs, flow cytometry; competitor HLA-E tetramer. As for the experimental part: Healthy donor PBMCs were seeded in 96-well plates at a density of 100,000 cells per well, incubated with human Fc block (Biolegend) and cell viability dye (Thermo Fisher) for 30 minutes on ice and protected from light. The cells were washed once with FACS buffer (PBS with 2% IgG low FBS). anti-CD94 antibodies at EC80 concentrations were incubated with cells for 30 minutes on ice and protected from light. After incubation with the anti-CD94 antibodies, the cells were washed and incubated with HLA-E tetramer PE (Creative Biolabs), anti-CD3 pacific blue-labelled, and anti-CD56 FITC-labelled antibodies (Biolegend) for 30 minutes on ice and protected from light. The cells then received a final wash in FACS buffer before quantification on the Cytoflex (Beckman Coulter). All data acquisition and fluorescence compensation were performed using CytoFlex (Beckman Coulter, Atlanta, Ga.). Data analysis was performed using FlowJo software. NK cells were identified through gating on lymphocytes on the forward and side scatter, followed by doublet and dead cell exclusion, and gated on the CD3−CD56+ population. HLA-E expression was then quantified on the CD3−CD56+NK cell population. Percent blocking was calculated as 100−((percent HLA-E positive for anti-CD94 antibody)/(percent HLA-E positive for isotype)*100).
Healthy donor PBMCs were incubated with anti-CD94 antibodies. PE labeled HLA-E tetramer was then incubated with cells and antibody mixture and detected by flow cytometry.
Percent blocking was calculated as 100−((percent HLA-E positive for anti-CD94 antibody)/(percent HLA-E positive for isotype)*100). If an antibody blocked more than 20% of HLA-E binding, it was considered a ligand-blocking antibody.

Assay [9] deals with T2, human CD94. In words: flow cytometry titration (100 nM to 0.046 nM) on healthy-donor PBMCs, CD3-CD56bright NK cells; column 'Affinity on human NK cells (nM)'.
For assay [10], the target named is T4, CD94/NKG2A heterodimer on BaF3 cells (UniProt Q13241 1-179; P26715 1-233, limits assumed).
T4 construct: whole, on cells
The experiment in a line: flow cytometry titration (50 nM to 0.02 nM) on BaF3 cells, anti-human AF647 secondary antibody; BaF3 cells overexpressing CD94/NKG2A heterodimer. As for the experimental part: as §3, §4

The target of assay [11] is T5, CD94 homodimer on BaF3 cells (UniProt Q13241 1-179).
T5 construct: whole, on cells
T5 sequence (looked up): T2 sequence (looked up)
In words: flow cytometry titration (50 nM to 0.02 nM) on BaF3 cells, anti-human AF647 secondary antibody; BaF3 cells overexpressing CD94 homodimer. How it is done:
as §3, §4

By EC50 is commonly meant the concentration giving half of the maximal effect. Usually EC50 (read off the curve) stands for the concentration at which the effect is half-maximal.

T4 sequence (P26715 whole entry, one chain of several): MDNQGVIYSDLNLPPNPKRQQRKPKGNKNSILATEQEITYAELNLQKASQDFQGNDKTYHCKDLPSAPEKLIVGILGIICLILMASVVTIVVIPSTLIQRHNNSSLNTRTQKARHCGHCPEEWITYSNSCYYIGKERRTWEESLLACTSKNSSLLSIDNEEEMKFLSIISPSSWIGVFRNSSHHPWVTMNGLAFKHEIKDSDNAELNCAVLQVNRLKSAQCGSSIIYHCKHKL
T3 sequence (P26717 whole entry, one chain of several): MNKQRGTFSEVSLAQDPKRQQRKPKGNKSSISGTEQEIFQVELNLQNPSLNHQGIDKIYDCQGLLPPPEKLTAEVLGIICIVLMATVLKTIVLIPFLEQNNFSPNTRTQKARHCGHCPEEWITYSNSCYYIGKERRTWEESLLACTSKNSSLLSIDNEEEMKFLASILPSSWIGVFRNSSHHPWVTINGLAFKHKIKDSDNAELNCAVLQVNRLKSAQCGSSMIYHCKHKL

B1: ATX-130-KIF (antibody, human IgG1, V domains shown)
VH: EVQLLESGGGLVKPGGSLRLSCAASGFTFSSYSMNWVRQAPGKGLEWVSSISTSSNFIYYADSVKGRFTISRDNAKNSLYLQMNSLRAEDTAVYYCARDLGRYYYYMDVWGKGTTVTVSS
VL: DIVMTQSPSSLSASVGDRVTITCRASQSISSWLAWYQQKPGKAPKSLIYAASSLQSGVPSKFSGSGSGTDFTLTISSLQPEDVATYYCQKYNSAPFTFGPGTKVDIK
notes: also called KIF-treated ATX-130; ATX-130-KIF Alexa Fluor 647
For the molecule B1, the concentration for a half-maximal effect (EC50) in the assay with cynomolgus CD94 [1] is 1 nM; with human CD94 [2] it was 1.4 nM; in the assay with human CD94 [3], 3 nM. Further, the “IC50 of cynomolgus NK cell depletion, ADCC assay with cynomolgus PBMCs” value in the assay with cynomolgus CD94 [4] came out at 0.3 ng/mL. Also, the “IC50 of CLPD-NK leukemic cell depletion, ADCC assay with patient PBMCs” value with human CD94 [5] was found to be 0.6 ng/mL. In the assay with human CD94 [5], the “IC50 of T-LGLL leukemic cell depletion, ADCC assay with patient PBMCs” value stood at 0.2 ng/mL. The “IC50 of human NK cell depletion, ADCC assay with healthy donor PBMCs” value with human CD94 [5] came out at 0.8 ng/mL.

B2: anti-CD94 antibody ATX-130 (antibody, human IgG1, V domains shown)
VH: B1 VH
VL: B1 VL
notes: also called hATX-130
As to B2, the 50% effective concentration (EC50 (read off the curve)) in the assay with cynomolgus CD94 [6] was approximately 0.7 nM. Also, the EC50 in assay [7] is 1.8 nM; with human CD94 [9] it was 0.6 nM; in [10], 0.8 nM; in assay [11], 0.3 nM. In the assay with human CD94 [8], the “percent HLA-E blocking” value came out at 0%.
